The target of experiment [1] is T1, mouse TSP2-TSR (Mus musculus, UniProt Q03350).
T1 construct: The TSP-1 and TSP-2 TSR regions corresponded to nucleotides 1342-1861 and 1356-1876 of TSP-1 and TSP-2 respectively; expressed in transfected cells; host or cells: S. cerevisiae strain Y190 (bait vector pAS2-2)
The experiment in a line: Yeast two-hybrid screen with TSP2-TSR as bait. Format: binding. Particulars: transactivation of reporter genes HIS3 and lacZ. How it is done: Generally, the nomenclature and the laboratory procedures in recombinant DNA technology described here are well known to those skilled in the art and are commonly employed in the art. The peptide of SEQ ID NO:1 was isolated by the yeast two-hybrid system using the MATCHMAKER two-hybrid system from CLONTECH.
The S. cerevisiae strain Y190 (CLONTECH, CA) was used for cDNA library screening and for direct testing of protein—protein interactions. The cells were grown at 30° C. either in rich YPD media or minimal media with the appropriate amino-acid supplements. The minimal media were SD-Trp, in which tryptophan was omitted; SD-Leu, in which leucine was omitted; SD-Trp, Leu, in which both tryptophan and leucine were omitted, and SD-Trp, leu, His, in which tryptophan, leucne and histidine were lacking.
The constructs for use in the yeast two-hybrid system were based on the GAL4 two-hybrid system 2, which includes the cloning vectors pAS2-1 and pACT2 (CLONTECH, CA). […] A bait vector with a second reading frame, designated pAS2-2, was constructed by linearizing the pAS2-1 with NcoI and filling-in using T4 DNA polymerase. […]
During the screen, the interaction between the bait (TSP1-TSR or TSP2-TSR) and the prey (NIH3T3 translational library) were assessed by their ability to transactivate the reporter genes HIS3 and lacZ. […]
In general terms: A reporter such as luciferase makes a cellular process visible.

The target in experiment [2] is T2, proMMP-9 activated by MMP3 (Homo sapiens, UniProt P14780).
T2 construct: purchased CALBIOCHEM
The experiment in a line: MMP enzymatic assay with [3H]-labeled gelatin substrate, proMMP-9 activated by MMP3. Particulars: peptide tested as MBP fusion protein; proMMP-9 activated with MBP-MMP3, incubated for 2 hours; FIG. 3. The format is biochemical. How it is done:
FIG. 3: is a bar graph depicting the inhibitory effect of the peptide of the invention on activated MMP-9 in an in vitro assay. ProMMP-9 activated with MBP-MMP3 was incubated for 2 hours with control protein or recombinant MBP-peptide fusion protein (MBP-29).
(§1) For expression of the peptide as a fusion protein for subsequent use in MMP-9 inhibition assays, the cDNA encoding the peptide in SEQ ID NO:2 was cloned into the prokaryotic expression vector pMAL.c2× (NEN). The peptide was expressed as a fusion with the maltose binding protein (MBP) in the bacterial strain, BL21-codon plus (STRATAGENE). The bacteria were transformed using any standard method known in the art and grown at 37° C., as recommended by the supplier. The bacterial culture was supplemented with IPTG (isopropyl B-D-thiogalacto pyranoside) to a final concentration of 0.3 mM and grown further. The fusion protein with MBP was subsequently extracted from the bacterial cells using purified amylose resin. ProMMP (CALBIOCHEM) was used for assessing functionality of the bacterially expressed MBP-fusion peptide.
(§2) The enzymatic assays were performed using [3H]-labeled gelatin substrate. […] The radioactivity in the TCA soluble fraction was determined by a β-scintillation counter which gives a measure of the enzymatic activity of MMP-9.

The target of experiment [3] is T3, proMMP-9 (Homo sapiens, UniProt P14780).
T3 construct: purchased CALBIOCHEM
The experiment in a line: MMP enzymatic assay with [3H]-labeled gelatin substrate, basal activity of proMMP-9. The following applies: peptide tested as MBP fusion protein; proMMP9 preincubated at 37° C. for 2 hours with 10 or 100 ng, then [3H]-labeled substrate for 1 hour; FIG. 2. The format is biochemical. How it is done:
FIG. 2: is a bar graph depicting the inhibitory effect of the peptide of the invention on MMP-9 activity in an in vitro assay. ProMMP9 was preincubated at 37° C. for 2 hours with 10 or 100 ng of recombinant MBP-peptide fusion protein (MBP-29) followed by addition of [^3H]-labeled substrate for 1 hour.
as §1, §2

T2 sequence (P14780 107-707 limits assumed): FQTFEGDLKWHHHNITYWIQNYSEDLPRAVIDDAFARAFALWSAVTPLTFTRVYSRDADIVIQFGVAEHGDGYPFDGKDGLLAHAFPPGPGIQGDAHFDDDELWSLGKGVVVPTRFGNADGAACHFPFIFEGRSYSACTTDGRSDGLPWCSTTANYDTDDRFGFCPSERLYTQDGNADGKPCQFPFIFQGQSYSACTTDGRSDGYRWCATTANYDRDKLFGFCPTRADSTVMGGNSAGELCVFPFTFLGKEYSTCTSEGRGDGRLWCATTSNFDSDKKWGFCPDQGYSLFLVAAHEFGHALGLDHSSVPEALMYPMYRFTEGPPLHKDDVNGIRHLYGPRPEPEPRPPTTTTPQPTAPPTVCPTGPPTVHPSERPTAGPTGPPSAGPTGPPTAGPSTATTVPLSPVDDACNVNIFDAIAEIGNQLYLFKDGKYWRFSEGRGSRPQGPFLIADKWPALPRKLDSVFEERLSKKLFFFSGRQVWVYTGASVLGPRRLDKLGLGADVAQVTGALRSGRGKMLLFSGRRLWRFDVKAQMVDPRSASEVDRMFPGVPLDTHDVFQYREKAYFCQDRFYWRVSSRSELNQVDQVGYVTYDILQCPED
T3 sequence (P14780 20-707 limits assumed): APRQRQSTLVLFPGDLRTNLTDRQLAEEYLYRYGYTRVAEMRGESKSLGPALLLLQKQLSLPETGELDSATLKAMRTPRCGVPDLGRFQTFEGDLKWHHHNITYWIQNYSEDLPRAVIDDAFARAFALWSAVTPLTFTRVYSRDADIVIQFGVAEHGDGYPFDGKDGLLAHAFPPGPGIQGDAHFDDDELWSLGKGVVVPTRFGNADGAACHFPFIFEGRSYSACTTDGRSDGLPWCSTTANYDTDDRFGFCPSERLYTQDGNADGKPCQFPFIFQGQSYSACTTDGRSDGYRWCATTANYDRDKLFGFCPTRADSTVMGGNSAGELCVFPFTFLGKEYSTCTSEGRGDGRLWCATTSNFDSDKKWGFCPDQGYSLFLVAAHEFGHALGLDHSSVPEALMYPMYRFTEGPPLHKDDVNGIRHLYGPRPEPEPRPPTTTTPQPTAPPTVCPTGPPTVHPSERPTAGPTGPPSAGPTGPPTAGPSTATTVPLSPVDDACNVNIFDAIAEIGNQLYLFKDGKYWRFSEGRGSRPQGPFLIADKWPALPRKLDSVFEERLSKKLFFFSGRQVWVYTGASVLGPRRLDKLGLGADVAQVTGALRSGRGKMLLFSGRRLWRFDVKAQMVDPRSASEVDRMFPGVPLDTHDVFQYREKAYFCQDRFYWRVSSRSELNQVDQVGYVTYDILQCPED
T1 sequence (Q03350 381-552): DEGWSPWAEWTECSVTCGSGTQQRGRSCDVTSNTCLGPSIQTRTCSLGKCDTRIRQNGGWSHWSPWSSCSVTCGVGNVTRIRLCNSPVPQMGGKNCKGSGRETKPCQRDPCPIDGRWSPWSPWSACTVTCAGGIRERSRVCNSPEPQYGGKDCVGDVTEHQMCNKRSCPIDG

With “APWNCCPVSCCGNCCFFRAL QSCPQG (APWNCCPVSCCGNCCFFRALQSCPQG; OTHER INFORMATION: Peptide Inhibitor of MMP- 9 Activity and Angiogenesis) [peptide of SEQ ID NO:1]”, the “interaction with TSP-2” value in experiment [1] was “isolated as an interactor of TSP-2”. Further, the “inhibition of MMP-3 dependent activation of MMP (activated MMP-9)” value in experiment [2] is recorded as “inhibited in a dose-dependent manner”. The “inhibition of MMP-9 activity (basal activity of proMMP-9)” value in experiment [3] is “inhibited MMP-9 activity in a dose-dependent manner”.

Source of the values: patent publication US6667388B2, “Peptide inhibitor of MMP activity and angiogenesis” (Beth Israel Deaconess Medical Center, priority 2001, dated 2003).
